Experimental data as given in article doi:10.1101/2021.02.18.431817.
Read-outs that look alike come from different tables or passages of the source.

How the values were obtained:
Assay in all cases: EMSA
AtGAPC1 [1] = target: T1, AtGAPC1 (Arabidopsis thaliana, UniProt P25858 1-338)
GAPDH from rabbit muscle = GAPDH from rabbit muscle (rabbit, UniProt P46406 1-333)
AtGAPC2 = AtGAPC2 (Arabidopsis thaliana, UniProt Q9FX54 1-338)
AtGAPC1 [2] = target: T1, AtGAPC1; remark: listed apart in the source

T1 sequence (P25858 whole entry): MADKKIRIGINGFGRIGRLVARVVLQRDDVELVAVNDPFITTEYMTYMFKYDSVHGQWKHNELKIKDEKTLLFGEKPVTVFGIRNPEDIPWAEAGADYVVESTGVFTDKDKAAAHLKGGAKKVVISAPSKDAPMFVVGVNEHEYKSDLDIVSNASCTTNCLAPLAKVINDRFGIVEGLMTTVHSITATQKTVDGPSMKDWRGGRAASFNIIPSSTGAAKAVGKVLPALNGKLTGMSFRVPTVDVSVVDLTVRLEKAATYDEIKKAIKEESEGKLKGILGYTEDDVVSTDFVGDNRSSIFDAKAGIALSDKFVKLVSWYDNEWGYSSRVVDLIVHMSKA
Chain of AtGAPC2 (Q9FX54 whole entry): as the sequence (P25858 whole entry) above, with N61H, I65V, E68D, A92G, Y98F, A227S, L274M counted along it
Chain of GAPDH from rabbit muscle (P46406 whole entry): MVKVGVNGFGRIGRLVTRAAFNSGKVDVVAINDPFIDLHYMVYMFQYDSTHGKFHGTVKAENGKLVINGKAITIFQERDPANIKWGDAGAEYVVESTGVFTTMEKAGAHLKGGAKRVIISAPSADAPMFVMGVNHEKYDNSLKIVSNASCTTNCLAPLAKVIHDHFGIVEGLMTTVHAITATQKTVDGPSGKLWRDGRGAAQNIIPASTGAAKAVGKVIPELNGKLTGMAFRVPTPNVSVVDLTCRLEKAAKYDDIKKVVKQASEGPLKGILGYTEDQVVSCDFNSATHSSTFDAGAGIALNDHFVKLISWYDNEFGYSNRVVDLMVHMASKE

B1: M1-RNA (consensus) (ssRNA)
RNA: AUAUAUUCUCCGGAGAA
**Q.** Does B1 bind (AtGAPC1 [1])?
**A.** binds

B2: Random RNA (AT5G16470 5'-UTR, mutated M2) (ssRNA)
RNA: UUAGCGUUUUAAUGUUGAGUGAGUAAGUUAAGGGGUU
**Q.** Does B2 bind (AtGAPC1 [1])?
**A.** no binding

B3: M2-RNA (consensus) (ssRNA)
RNA: AUAUAUGAGAUUAGGGUUU
**Q.** Does B3 bind (AtGAPC1 [1])?
**A.** binds

B4: SAP3 M1 (ssRNA)
RNA: ACCAGAUUUUUUUCGCCGGAGUUUGUUUUGAUCCA
**Q.** Does B4 bind (GAPDH from rabbit muscle)?
**A.** binds

**Q.** Does B4 bind (AtGAPC2)?
**A.** binds

**Q.** Does B4 bind (AtGAPC1 [2])?
**A.** binds
